The subject of series [1] is MS2 coat protein. Kind of series: apparent KD of MS2 coat protein, switch ON state; designed switch direction (-1 OFF switch, 1 ON switch): 1; higher = weaker reporter binding. The conditions noted are these: FMN input: 0 or 200 uM; Eterna round: R93 (includes R88 designs). In short, it runs like this: (§1)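 Illumina sequencing clusters were used for on-chip transcription of designed RNA switches. Titration with SNAP-549-labelled MS2 coat protein followed, in twofold steps from 0.7 or 1.5 nM to 3 µM in 100 mM Tris-HCl pH 7.5, 80 mM KCl, 4 mM MgCl2, without or with constant ligand. Apparent KD is each design's median of fits to normalised cluster binding curves.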

The subject of series [2] is MS2 coat protein. Kind of series: apparent KD of MS2 coat protein, switch OFF state (with FMN for OFF switches, without FMN for ON switches); designed switch direction (-1 OFF switch, 1 ON switch): 1; higher = weaker reporter binding. To be noted: FMN input: 0 or 200 uM; Eterna round: R93 (includes R88 designs). In short, it runs like this:
as §1

Consider 16 sequences from the supplement of paper PMC9170038.

Take “AAAAAACAUGAGGAUCACCCAUGUAAAAAAAAUGGAGGAUAUUGGAAAAAAAAAAAAAAACGAGAAGGCUAAAAAA [quick and simple]”: the “apparent KD of MS2 coat protein” value with MS2 coat protein [1] worked out at 44.4 nM; in the series with MS2 coat protein [2], 50.4 nM.
In the case of “AGCAUAGACAGAGAGGAUAUCCACGAGACAACAUGAGGAUCACCCAUGUGAAAGAGAAUACGAUGGGAGAAGGCUCGCGAUACGA [Topaz 49]”, the entries for the “apparent KD of MS2 coat protein” value with MS2 coat protein [1] and with MS2 coat protein [2] were 13.4 nM and 19.7 nM, respectively.
Consider “GAAAAACAUGAGGAUCACCCAUGUAAGAUAAACACAGGAUAUGCGAAAAGAAAGAAAGAAGCAGAAGGGUGAAGAA [Mat - Same State 1 - Tesla mod - 40]”, for which the entries for the “apparent KD of MS2 coat protein” value with MS2 coat protein [1] and with MS2 coat protein [2] were 12.3 nM and 33.7 nM, respectively.
Regarding “GAGGACCUAGGAUAGGAUAUAUGAAUAAUUACAUGAGGAUCACCCAUGUCCAUUUAUAUGGGAACAUAGAAGGGUUGUGGUUAUC [SameState2 Malc#36]”, the “apparent KD of MS2 coat protein” value in the series on MS2 coat protein [1] worked out at 147 nM; in the series with MS2 coat protein [2] it was 178 nM.
“GAAAAACAUGAGGAUCACCCAUGUGUAAAUAUGGAAGGAUAUACAAAGACGAAAGUCAAAGUAGAAGGUCUAAAAG [Mat - Same State 1 - Eli mod - D16]”: the “apparent KD of MS2 coat protein” value in the series on MS2 coat protein [1] was 23.5 nM; in the series with MS2 coat protein [2] it was 28.9 nM.
With “AAAAAACAUGAGGAUCACCCAUGUAAAAAAAUGGGAGGAUAUACAAAAACGAAAAAAAAAGUAGAAGGCCUGAAAA [same state 8]”, the “apparent KD of MS2 coat protein” value came to 57.4 nM in the series with MS2 coat protein [1] and 162 nM in the series on MS2 coat protein [2].
Take “GAAAAACAUGAGGAUCACCCAUGUGACAACAUGGGAGGAUAUACAUGGACGAUAGUCAAAGUAGAAGGCCUAAAAG [Garnet 63]”: the “apparent KD of MS2 coat protein” value in the series with MS2 coat protein [1] stood at 142 nM; in the series on MS2 coat protein [2] it was 24.4 nM.
With “CUGGAACAUGAGGAUCACCCAUGUCACAGAAACUGAGGAUAUGGGCGCUAACAAGCAUGACCAGAAGGCAGACACG [Mamaes]”, the “apparent KD of MS2 coat protein” value in the series with MS2 coat protein [1] amounted to 18 nM; in the series on MS2 coat protein [2] it was 27.2 nM.
On the same counts, the results for “AAAUAAAGGACUGAGGAUAUACCACAUGAAACAUGAGGAUCACCCAUGUUGAAAAACAAAGGGUGGUAGAAGGCAGUCCACAAAC [Same State 2.5c ( so lets mod hyphema)]” are 10.7 nM and 14.1 nM.
Consider “AAAGAAAAACUAGAGGAUAUCUGAGUGGUAACAUGAGGAUCACCCAUGUGAAGAAAGGAACAUGAGGAGAAGGCUAGAAGAAAAA [JL Nando mod 13]”, for which the “apparent KD of MS2 coat protein” value was 23.8 nM with MS2 coat protein [1] and 44.2 nM in the series on MS2 coat protein [2].
On to “AUAAAUAAAAUCGAGGAUAUCCAAAAAAAAACAUGAGGAUCACCCAUGUAAAAGAAAAUAAUAUGGGAGAAGGCGAAAAAUAAAU [SS2 M 5]”, for which the “apparent KD of MS2 coat protein” value is 36.8 nM with MS2 coat protein [1] and 59.2 nM in the series with MS2 coat protein [2].
In the case of “AAAAUACAUGAGGAUCACCCAUGUGAAAAUAUGGGAGGAUAUCAUGGAAAAAAAAAAACAUGAGAAGGCCCAAAAA [SS! 1 MT 10]”, the “apparent KD of MS2 coat protein” value was determined as 24.8 nM in the series on MS2 coat protein [1] and 104 nM in the series on MS2 coat protein [2].
On the same counts, the results for “AUAUGGGCCCAUCAGGAUAUGUUCGGCGGAACAUGAGGAUCACCCAUGUGACAAAAGACGCCCACGCAGAAGGGAUUACAGGCAA [Anistera]” are 22 nM and 49.7 nM.
For the sequence “AAAAAACAUGAGGAUCACCCAUGUAAAAAAAUGGGAGGAUAUACAAAGACGAAAGUCAAAGUAGAAGGCCUGAAAG [same state 3]”, the results for the “apparent KD of MS2 coat protein” value with MS2 coat protein [1] and in the series with MS2 coat protein [2] were 21.7 nM and 58.4 nM, respectively.
On the same counts, the results for “CGGAGACAUGAGGAUCACCCAUGUGAGAAGAGGCGAGGAUAUCGAAAGAAAGAAGAGAAACGAGAAGGCGCGAGCG [salish99-SS1-076]” are 32.8 nM and 42.4 nM.
On to “AGGAAACAUGAGGAUCACCCAUGUAGAAAAAUGGGAGGAUAUACAAAGACGAAAGUCAAAGUAGAAGGCCUAAAAG [76%, Meechl, 6]”, for which the “apparent KD of MS2 coat protein” value stood at 14.5 nM in the series on MS2 coat protein [1] and 45.8 nM with MS2 coat protein [2].
